Reference: patent US20110038892A1 (priority 2009, published 2011)
No end group written: not given here. *: point of attachment. FITC = O=C1OC2(c3ccc(O)cc3Oc3cc(O)ccc32)c2ccc(NC(=S)*)cc21; Ahx = NCCCCCC(=O)O

Assays:
[1] = target: syntaxin1 (stx1) and SNAP25 (S25) (Rattus norvegicus, UniProt P32851+P60881)
SNARE assemblies = type: binding

Chain of S1S23 (O00161 whole entry): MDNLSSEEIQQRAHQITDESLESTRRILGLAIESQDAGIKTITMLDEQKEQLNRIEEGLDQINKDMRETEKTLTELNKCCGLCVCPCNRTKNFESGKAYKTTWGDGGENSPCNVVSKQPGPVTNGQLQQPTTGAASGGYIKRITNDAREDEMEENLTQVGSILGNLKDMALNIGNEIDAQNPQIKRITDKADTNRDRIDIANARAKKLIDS
Chain of S3S23 (O00161 whole entry): as above
Chain of syntaxin1 (stx1) and SNAP25 (S25) (P60881 whole entry): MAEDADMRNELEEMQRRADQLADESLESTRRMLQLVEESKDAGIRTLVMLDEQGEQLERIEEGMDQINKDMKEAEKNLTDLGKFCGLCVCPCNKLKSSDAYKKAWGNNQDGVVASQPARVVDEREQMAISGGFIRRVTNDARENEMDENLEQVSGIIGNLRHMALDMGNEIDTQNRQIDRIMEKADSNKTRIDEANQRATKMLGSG
Chain of syntaxin1 (stx1) and SNAP25 (S25) (P32851 whole entry): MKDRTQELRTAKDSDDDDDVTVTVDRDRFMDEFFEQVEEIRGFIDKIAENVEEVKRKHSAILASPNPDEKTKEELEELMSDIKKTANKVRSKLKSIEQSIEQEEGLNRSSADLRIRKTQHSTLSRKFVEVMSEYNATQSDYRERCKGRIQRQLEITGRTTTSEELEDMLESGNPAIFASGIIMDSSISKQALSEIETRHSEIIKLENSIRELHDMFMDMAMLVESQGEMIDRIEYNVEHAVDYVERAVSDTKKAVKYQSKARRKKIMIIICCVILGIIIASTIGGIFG

{FITC-Ahx}-DKVLERDQKLSELDDRADALQAGASQFETSAAKLA [35 amino acid synaptobrevin SNARE motif]
formation of SDS-resistant complex [1]: forms a complex but it ‘melts’ during gel-electrophoresis

synaptobrevin (VAMP2)
Tm (S1S25): 71 °C
Tm (S3S25): 59 °C
Tm (S1S23): 65 °C
Tm (S3S23): 61 °C

Ac-ERKAKYAKMEAEREVMRQGIRDKYGIKKGSGSGGIKVAV-NH2 [29 amino acid complexin 1 peptide]
interaction with SNARE assemblies (SNARE assemblies): can interact with SNARE assemblies

{FITC-Ahx}-DIMRVNVDKVLERDQKLSELDDRADALQAGASQFETSAAKLA
formation of SDS-resistant complex [1]: still forms an SDS-resistant complex

B1: VAMP7 (protein)
VAMP7: AILFAVVARGTTILAKHAWCGGNFLEVTEQILAKIPSENNKLTYSHGNYLFHYICQDRIVYLCITDDDFERSRAFSFLNEVKKRFQTTYGSRAQTALPYAMNSEFSSVLAAQLKHHSENKSLDKVMETQAQVDELKGIMVRNIDLVAQRGERLELLIDKTENLVDSSVTFKTTSRNLARAMCMKNIK
Tm (S1S25): 56 °C
Tm (S3S25): 45 °C
Tm (S1S23): 57 °C
Tm (S3S23): 50 °C

B2: VAMP4 (protein)
VAMP4: PPKFKRHLNDDDVTGSVKSERRNLLEDDSDEEEDFFLRGPSGPRFGPRNDKIKHVQNQVDEVIDVMQENITKVIERGERLDELQDKSESLSDNATAFSNRSKQLRRQMWWRGCK
Tm (S1S25): 60 °C
Tm (S3S25): 53 °C
Tm (S1S23): 60 °C
Tm (S3S23): 57 °C

B3: VAMP8 (protein)
VAMP8: EEASGSAGNDRVRNLQSEVEGVKNIMTQNVERILSRGENLDHLRNKTEDLEATSEHFKTTSQKVARKFWWKNVK
Tm (S1S25): 57 °C
Tm (S3S25): 48 °C
Tm (S1S23): 57 °C
Tm (S3S23): 56 °C

B4: VAMP5 (protein)
VAMP5: AGKELKQCQQQADEVTEIMLNNFDKVLERHGKLAELEQRSDQLLDMSSAFSKTTKTLAQQKRWENIRCR
Tm (S1S25): 53 °C
Tm (S3S25): 42 °C
Tm (S1S23): 55 °C
Tm (S3S23): 52 °C
